# Results from patent US20260201064A1 (ISU ABXIS, published 2026).
# T1: recombinant human ASM protein (human, UniProt P17405 47-630)
# T1 construct: Recombinant human ASM in solution; also called acid sphingomyelinase (ASM) protein
# T1 sequence: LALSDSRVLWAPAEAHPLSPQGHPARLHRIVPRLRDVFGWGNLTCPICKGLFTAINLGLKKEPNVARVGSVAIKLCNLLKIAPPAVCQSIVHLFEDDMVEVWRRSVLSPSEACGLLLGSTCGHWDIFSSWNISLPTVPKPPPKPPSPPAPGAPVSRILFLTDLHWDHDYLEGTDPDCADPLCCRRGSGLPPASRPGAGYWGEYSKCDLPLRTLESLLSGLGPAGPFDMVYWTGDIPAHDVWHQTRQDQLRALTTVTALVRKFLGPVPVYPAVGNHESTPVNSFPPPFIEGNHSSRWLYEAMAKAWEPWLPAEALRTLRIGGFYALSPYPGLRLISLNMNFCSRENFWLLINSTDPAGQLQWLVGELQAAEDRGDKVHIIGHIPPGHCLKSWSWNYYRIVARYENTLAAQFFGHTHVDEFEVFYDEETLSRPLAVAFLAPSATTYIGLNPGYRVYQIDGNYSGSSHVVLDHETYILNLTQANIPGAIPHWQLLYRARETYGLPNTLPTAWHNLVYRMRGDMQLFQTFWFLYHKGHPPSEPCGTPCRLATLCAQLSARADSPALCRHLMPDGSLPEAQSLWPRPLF
# Target: T1, recombinant human ASM protein
# Assay: BLI (Octet), antibody on AHC sensor
# Protocol: (§1) The binding affinity, to the ASM protein, of the produced antibodies specifically binding to the ASM protein and the interactive dynamics therebetween were measured using an Octet® QK384 system (Pall Life Sciences).
# (§2) First, an antibody specifically binding to the ASM protein produced in Example 1 was captured using an anti-human IgG Fc capture (AHC) biosensor, and 1.25, 2.5, 5, 10, or 20 nM recombinant human ASM protein solution was added thereto. […] The association constant (Kₐ), dissociation constant (Kd), and equilibrium dissociation constant (KD) for each antibody were determined using Octet® analysis software (Pall Life® Sciences). As a result, the binding affinities, to the human ASM protein, of the antibodies with mutations in the heavy chain CDR regions of the antibody #9104 as depicted in Table 1 are shown in Table 5, and the binding affinities, to the human ASM protein, of the antibodies with mutations of the light chain CDR regions in the antibody #9104 as depicted in Table 2 are shown in Table 6.
Binder,Kd [nM],koff [s⁻¹],kon [M⁻¹ s⁻¹]
"#9104v-L11 (antibody, human IgG4 S228P, lambda, V domains shown, Full-length IgG, lambda) VH: EVQLLESGGGLVQPGGSLRLSCAASGFTFSNYYMSWVRQAPGKGLEWVSGIYYGSGNIYYADSVKGRFTISRDNSKNTLYLQMNSLRAEDTAVYYCARDTPGFDYWGQGTLVTVSS VL: QSVLTQPPSASGTPGQRVTISCTGSSSNIGNNAVNWYQQLPGTAPKLLIYYDIFQPSGVPDRFSGSKSGTSASLAISGLRSEDEADYYCGAWDYSLSAYVFGGGTKLTVLG",0.768,0.000199,259000
"#9104v-L15 (antibody, human IgG4 S228P, lambda, V domains shown, Full-length IgG, lambda) VH: EVQLLESGGGLVQPGGSLRLSCAASGFTFSNYYMSWVRQAPGKGLEWVSGIYYGSGNIYYADSVKGRFTISRDNSKNTLYLQMNSLRAEDTAVYYCARDTPGFDYWGQGTLVTVSS VL: QSVLTQPPSASGTPGQRVTISCTGSSSNIGNNAVNWYQQLPGTAPKLLIYYDIHRPYGVPDRFSGSKSGTSASLAISGLRSEDEADYYCGAWDYSLSAYVFGGGTKLTVLG",0.992,0.000273,275000
"#9104v-L12 (antibody, human IgG4 S228P, lambda, V domains shown, Full-length IgG, lambda) VH: EVQLLESGGGLVQPGGSLRLSCAASGFTFSNYYMSWVRQAPGKGLEWVSGIYYGSGNIYYADSVKGRFTISRDNSKNTLYLQMNSLRAEDTAVYYCARDTPGFDYWGQGTLVTVSS VL: QSVLTQPPSASGTPGQRVTISCTGSSSNIGNNAVNWYQQLPGTAPKLLIYYDIFRPDGVPDRFSGSKSGTSASLAISGLRSEDEADYYCGAWDYSLSAYVFGGGTKLTVLG",0.718,0.000159,221000

# Target: T1, recombinant human ASM protein
# Assay: BLI (Octet), antibody on AHC sensor
# Remark: another data set of the same source
# Protocol: as §1, §2
# After the small-scale expression in the ExpiCHO cell line as described above, the binding affinity to the human ASM protein was investigated as described in Experimental Example 1. Specifically, the antibody produced by a combination of #9104v-H33 heavy chain variable region and #9104v-L23 light chain variable region was not expressed and thus excluded in the analysis of binding affinity to ASM protein.
Binder,Kd [nM],koff [s⁻¹],kon [M⁻¹ s⁻¹]
"#9104a-D6 (antibody, human IgG4 S228P, lambda, V domains shown, VH of #9104v-H27 with VL of #9104v-L64; full-length IgG, lambda) VH: EVQLLESGGGLVQPGGSLRLSCAASGFTFSNYYMSWVRQAPGKGLEWVSGTYYDSGYVYYADSVKGRFTISRDNSKNTLYLQMNSLRAEDTAVYYCARDTPGFDYWGQGTLVTVSS VL: QSVLTQPPSASGTPGQRVTISCTGSSSNIGNNAVNWYQQLPGTAPKLLIYYDYFSHSGVPDRFSGSKSGTSASLAISGLRSEDEADYYCGAWDYSLSAYVFGGGTKLTVLG",1.07,8.7e-05,81200
"#9104a-E1 (antibody, human IgG4 S228P, lambda, V domains shown, VH of #9104v-H10 with VL of #9104v-L65; full-length IgG, lambda) VH: EVQLLESGGGLVQPGGSLRLSCAASGFTFSNYYMSWVRQAPGKGLEWVSGIYYGNGIPYYADSVKDRFTISRDNSKNTLYLQMNSLRAEDTAVYYCARDTPGFDYWGQGTLVTVSS VL: QSVLTQPPSASGTPGQRVTISCTGSSSNIGNNAVNWYQQLPGTAPKLLIYYDYYQSSGVPDRFSGSKSGTSASLAISGLRSEDEADYYCGAWDYSLSAYVFGGGTKLTVLG",0.289,6.21e-05,215000
"#9104a-E8 (antibody, human IgG4 S228P, lambda, V domains shown, VH of #9104v-H33 with VL of #9104v-L65; full-length IgG, lambda) VH: EVQLLESGGGLVQPGGSLRLSCAASGFTFSNYYMSWVRQAPGKGLEWVSGVYYPSGNPYYADSVKGRFTISRDNSKNTLYLQMNSLRAEDTAVYYCARDTPGFDYWGQGTLVTVSS VL: QSVLTQPPSASGTPGQRVTISCTGSSSNIGNNAVNWYQQLPGTAPKLLIYYDYYQSSGVPDRFSGSKSGTSASLAISGLRSEDEADYYCGAWDYSLSAYVFGGGTKLTVLG",0.38,5.66e-05,149000
"#9104a-E6 (antibody, human IgG4 S228P, lambda, V domains shown, VH of #9104v-H27 with VL of #9104v-L65; full-length IgG, lambda) VH: EVQLLESGGGLVQPGGSLRLSCAASGFTFSNYYMSWVRQAPGKGLEWVSGTYYDSGYVYYADSVKGRFTISRDNSKNTLYLQMNSLRAEDTAVYYCARDTPGFDYWGQGTLVTVSS VL: QSVLTQPPSASGTPGQRVTISCTGSSSNIGNNAVNWYQQLPGTAPKLLIYYDYYQSSGVPDRFSGSKSGTSASLAISGLRSEDEADYYCGAWDYSLSAYVFGGGTKLTVLG",1.19,7.77e-05,65500

# Now from value to binder:
Kd [nM],koff [s⁻¹],kon [M⁻¹ s⁻¹],Binder
0.197,4.15e-05,210000,"#9104a-E4 (antibody, human IgG4 S228P, lambda, V domains shown, VH of #9104v-H17 with VL of #9104v-L65; full-length IgG, lambda) VH: EVQLLESGGGLVQPGGSLRLSCAASGFTFSNYYMSWVRRAPGKGLEWVSGIYYGSGTPYYAASVKGRFTISRDNSKNTLYLQMNSLRAEDTAVYYCARDTPGFDYWGQGTLVTVSS VL: QSVLTQPPSASGTPGQRVTISCTGSSSNIGNNAVNWYQQLPGTAPKLLIYYDYYQSSGVPDRFSGSKSGTSASLAISGLRSEDEADYYCGAWDYSLSAYVFGGGTKLTVLG"
0.211,4.59e-05,218000,"#9104a-E7 (antibody, human IgG4 S228P, lambda, V domains shown, VH of #9104v-H31 with VL of #9104v-L65; full-length IgG, lambda) VH: EVQLLESGGGLVQPGGSLRLSCAASGFTFSNYYMSWVRQAPGKGLEWVSGVYYGSGTPYYADSVKGRFTISRDNSKNTLYLQMNSLRAEDTAVYYCARDTPGFDYWGQGTLVTVSS VL: QSVLTQPPSASGTPGQRVTISCTGSSSNIGNNAVNWYQQLPGTAPKLLIYYDYYQSSGVPDRFSGSKSGTSASLAISGLRSEDEADYYCGAWDYSLSAYVFGGGTKLTVLG"
0.177,3.33e-05,188000,"#9104a-D8 (antibody, human IgG4 S228P, lambda, V domains shown, VH of #9104v-H33 with VL of #9104v-L64; full-length IgG, lambda) VH: EVQLLESGGGLVQPGGSLRLSCAASGFTFSNYYMSWVRQAPGKGLEWVSGVYYPSGNPYYADSVKGRFTISRDNSKNTLYLQMNSLRAEDTAVYYCARDTPGFDYWGQGTLVTVSS VL: QSVLTQPPSASGTPGQRVTISCTGSSSNIGNNAVNWYQQLPGTAPKLLIYYDYFSHSGVPDRFSGSKSGTSASLAISGLRSEDEADYYCGAWDYSLSAYVFGGGTKLTVLG"
0.212,4.27e-05,202000,"#9104a-E2 (antibody, human IgG4 S228P, lambda, V domains shown, VH of #9104v-H11 with VL of #9104v-L65; full-length IgG, lambda) VH: EVQLLESGGGLVQPGGSLRLSCAASGFTFSNYYMSWVRQAPGKGLEWVSGIYYGSGIPYYADSVKERFTISRDNSKNTLYLQMNSLRAEDTAVYYCARDTPGFDYWGQGTLVTVSS VL: QSVLTQPPSASGTPGQRVTISCTGSSSNIGNNAVNWYQQLPGTAPKLLIYYDYYQSSGVPDRFSGSKSGTSASLAISGLRSEDEADYYCGAWDYSLSAYVFGGGTKLTVLG"
0.198,5.69e-05,288000,"#9104a-D7 (antibody, human IgG4 S228P, lambda, V domains shown, VH of #9104v-H31 with VL of #9104v-L64; full-length IgG, lambda) VH: EVQLLESGGGLVQPGGSLRLSCAASGFTFSNYYMSWVRQAPGKGLEWVSGVYYGSGTPYYADSVKGRFTISRDNSKNTLYLQMNSLRAEDTAVYYCARDTPGFDYWGQGTLVTVSS VL: QSVLTQPPSASGTPGQRVTISCTGSSSNIGNNAVNWYQQLPGTAPKLLIYYDYFSHSGVPDRFSGSKSGTSASLAISGLRSEDEADYYCGAWDYSLSAYVFGGGTKLTVLG"
0.273,6.36e-05,234000,"#9104a-E5 (antibody, human IgG4 S228P, lambda, V domains shown, VH of #9104v-H19 with VL of #9104v-L65; full-length IgG, lambda) VH: EVQLLESGGGLVQPGGSLRLSCAASGFTFSNYYMSWVRQAPGKGLEWVSGIYYGSGVPYYADSVKGRFTISRDNSKNTLYLQMNSLRAEDTAVYYCARDTPGFDYWGQGTLVTVSS VL: QSVLTQPPSASGTPGQRVTISCTGSSSNIGNNAVNWYQQLPGTAPKLLIYYDYYQSSGVPDRFSGSKSGTSASLAISGLRSEDEADYYCGAWDYSLSAYVFGGGTKLTVLG"
0.28,5.74e-05,205000,"#9104a-E3 (antibody, human IgG4 S228P, lambda, V domains shown, VH of #9104v-H13 with VL of #9104v-L65; full-length IgG, lambda) VH: EVQLLESGGGLVQPGGSLRLSCAASGFTFSNYYMSWVRQAPGKGLEWVSGIYYGSGIPYYANSVKGRFTISRDNSKNTLYLQMNSLRAEDTAVYYCARDTPGFDYWGQGTLVTVSS VL: QSVLTQPPSASGTPGQRVTISCTGSSSNIGNNAVNWYQQLPGTAPKLLIYYDYYQSSGVPDRFSGSKSGTSASLAISGLRSEDEADYYCGAWDYSLSAYVFGGGTKLTVLG"
